Test results from the domain aggregation screens of Martell et al. (2025).

Experiment: soluble fraction after stress (log2 fold change); higher = more stays soluble; pooled small domains, quantitative proteomics
Settings: stress: 50 degC
How it was run: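 Each library was heated to 50°C as a stress step. The libraries, made up of small protein domains, were pooled and analysed at high throughput by quantitative proteomics. The reported value is the base-two logarithm of the fold change in each protein's soluble amount after stress, taken as a measure of aggregation propensity. The higher the value, the more protein stays in solution.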

| Sequence | soluble fraction (log2) |
| --- | --- |
| HMSMFAQQLKDLRKKIPGLTQTDMAKKLGIAKTTYASYEQGKRTPDIETQNKIADFFNVSLDYLHG | -0.0838 |
| HMSMFSEILRTLRKAKGLTQRELAGHLGVTQQMVAKWEKGQSTPGPDQLTRMAELLEVSTDTLLGR | -0.162 |
| HMSMNSWFVEKERDNTRIDKFLNEQMADISRSYIQKLIKDDLVTVDLRPVKANYKVKEGDRVEVTLPEPV | 0.0182 |
| HMSMPTITLQHYKRGSHYYASIIETFRDPVTRKNSSRTLEALGDISEKMKEDPNYLQSLKDRVKALRSD | -0.656 |
| HMSMSLQFLSRRIRLQREKRGLKQHDIAHALQISPQAVSKWERGENAPDIALLRPLAGLLGVSIDWLMGGD | -2.15 |
| HMSNEEEIEGLVSKVLDNNPEIVERIRSGEDKLISYLVGEVMKQSSSSLNPGIVKEIIVNKTI | 0.161 |
| HMSNEITVPDLSGMSLEELETILSDRSLSYEIIDSIYNSTAKKGTVSSQDPLPDAKVKSGRTIYITVVSKL | -1.5 |
| HMSNENIDQDELQAIIQKVLASNQDAVAKYKAGKTAVIGFLIGQVMRQLNKKIDVALAKKTLLVFLEK | -0.396 |
| HMSNETKSAILNFAEKHHDFNIDDLFESLSKSMDINRSSLLWHLFKLVNSNVLIRTGRGMYAKV | -1.89 |
| HMSNEVSYSDFVRSVESDEVNAVTLDGEQIRFVGNDGQTYSVIKPADAQITQLLIDNNVTVRAEQQ | 0.0224 |
| HMSNEYLMPNLIGMSWDEAKSKYSQYMTLVPEQEWSEVTKDQIFDQEYPEGRKVKIGTEVTVKVSMGI | -0.192 |
| HMSNFGALLRMRRLEAGLSYRGLAEQSGLARATLVNLEQGLTKPSPLTMRRLASVKALRLTEL | -2.26 |
| HMSNFGERLRALRQDRQMTLQQASKVTGVAQSTLSKMENNQLSPTFNLMQKLAIGLGIDMPQLFAPVK | -0.108 |
| HMSNGEWQQGSDGRWWYKFSDGTYPKNKVETIGGKKYGFDSEGWMLANTTKEFSGTTYSFGADGVATS | 0.158 |
| HMSNHYETLGVEQTASVDEIKKAYRRLSLQYHPDRNTTSDAVGKFQKINDAHEILSDKQSRTEYDMQLK | 0.214 |
| HMSNIQLAANLQRLRKDHHFTQTQFSKKLNISRQAYSNYETGKRIPDLDIIIRIANIYHISLENLL | -0.389 |
| HMSNKYYETILDWFKSQIMSGELKEGDTIPSERELATRFGVSRVPVREALRILEYIGIVSNTADGMTVQKV | -0.879 |
| HMSNLKKRRLEKNLTLDDVGKLVGVSAATISRWESGDIENMRSDKIVKLANALEISPAVILGW | -0.0215 |
| HMSNLLKNILDVLEKEGPLKARKIALLLDSTRTTITHTTINSELYKALDLEGLTKNEQNIWSYVT | 0.00627 |
| HMSNLVEVPAVIGRMKEDAITMLISAGLEPAVTYDEYPLVKENLVADQSVAPGQKVEKGSFVTITVSRS | -0.0475 |
| HMSNMESLIGREATVIEMIPAEDVGRVKIDGDEWQAVLAREDDNEPRRDIQVGEKVIIVSYDSIILTVKTK | 0.0115 |
| HMSNNENSILEKLNSFSGKKIKVSHTIGSLAARLDEYPKIKMWLYKRIRENSINEQAYKYLIFIIERKVR | -1.2 |
| HMSNPADDVVDLLRQLRLPHMRAAAPELLATAKAQRWDPAEAIRALLTEELAGRQASSINARRK | -0.406 |
| HMSNPPIRIGKKALHELLTTWLSLLSRDGVAYLVVQKNLGADSLTAWLRDQGFPSEKIASKKGFRIIEVH | -0.245 |
| HMSNRDNPVVLDFKKVKSTEQLDNILEEYIRENFEGYTVKGRMFSSDEGKFIIALALKDDDGKRALVYFDV | -0.635 |

| Sequence | soluble fraction (log2) |
| --- | --- |
| HMSNRIDKIKLNHWLNIRKTSLDVLNNLLSKHLNHKINFENLENLDEQAIEKISEVLSIPKNKLLINDDVP | 0.16 |
| HMSNTVEDLIDDIGTVTKDSKDKIDAARKAYDGLTEDQKKLVPDSVLKTLTDAEAAYAKLTK | -0.0576 |
| HMSNWYGTVVKIQPRPNAQAADTAVVKLLDGSEHRFPVWADHLTTIEVGSRLKKLSGGWDPVLMDPEETF | -0.454 |
| HMSNWYKNNETDQIWWKDTPDSVGEWLFSFDKKQVFNMFADYPHNLTPEQKKIFDEENPEWSDRP | -0.328 |
| HMSNYPYLLRTYEGKLAVFTDDLVQPDLVFDVYVRTLPELDQQQLSRGIRVKTYDELTSMIEDYI | -1.13 |
| HMSPAVEDYLEQIHNLIAQKGYARVVDIAGNLKISQASVTNMIQRMDADGLVVYERYRGVVLTETGRK | -1.3 |
| HMSPDLNEVEEKVFRALNGVESMHVNKLGIELNLPVSELFFTLLELEMKNVVKALPGGMYKL | -1.95 |
| HMSPFYILDEVEAALDDTNLGRLLEIYEELRENSQLLVITHQKRTMEVGDALYGVTMRGDGVSAVISQRLR | 0.303 |
| HMSPKYLELVRWINTQIQEKKLTAGQKMYSENELKEMFGVSRQTVRHAISVLEGEGMIRRVRGSGTYINDN | -1.83 |
| HMSPLALLTPRELDILRAMTAGASNKEIARQFAIAETTVKIHVQHILRKLDVTTRVHAAVMASESGL | -2.66 |
| HMSPPALAVQRDGSNVQISWPGAEEGWRLESSAEPSGAAWDLIAQNPTPVGGRWTVSLTEPTGRRFYRLVK | 0.0321 |
| HMSPSLVEAMRLRMYEMGLNQAKLSELLGVSPSRVSDYLTGRSEPTLKVARDISRKLNIDASIVLG | -1.07 |
| HMSPSQFRSKSLLVEINFASRQMDGEILQGDYAGKRLSELTEAEVQELTAWLKQSDRESFVLLQAYLLRSG | -0.881 |
| HMSPSSPNQILGQYPKTKNDIILSSGRYGPYLKYNKKNYSLGNNISVEKLSLEEAVKIIDLKDKK | 0.0457 |
| HMSPTDKATVNVYALNVRTGPGTNYKVLGSVIKGTELQVLGSSGKWLKVKYGNREAYVAGWLVK | -1.62 |
| HMSPTEQEKIGLFIKKLREEKNLTQEAFASLLKTSQSAVARIESGNQNITIEQLMKIGEVLNHNIVSI | 0.0103 |
| HMSQDPLETYYPQWSAAVKQSNPDAEIIRDTDGKYYVEGMTKNRVAVIYENPHLVRLVNATTNVHVE | 0.0542 |
| HMSQDTLIGRVGVIVIGQARTGSPAQVRVKDGFGQTHYVMAEPDSEGVLKQGEAVLLVSLEGNTFKAILNP | -0.286 |
| HMSQDVLLKRSGDQIEVKITEVGEDYLKYKKKGFENGPDFKINTSDVFMVTFANGEKMMFEES | 0.0105 |
| HMSQEAKLAMPVTDLRLSARTLNALELANIRTVRDLVSHTEEQLLELRNFGETALAEVKEKLAALGLRLGM | 0.18 |
| HMSQESIMPNLVGSTEDEAKAIAVEYGFQLNVISRVNNSQYPAGVIIDQNVDEGVRIKAGYPVGVTIS | -0.207 |
| HMSQIAENNQKYVGTIQKVLVEGTSKNNDDMLTGRTDSNKVVIFEGDKKLIGNMVELKIVSEHMWYLKGEL | -0.0348 |
| HMSQISKLWRPSEDVTEILTRSGMDSEFLEGLIPEFIIYWSERADVLVSYNSKFIEHARLKWAQHSAEIKT | -2.63 |
| HMSQLLHELLAHVLKDRIISGEWPAGSRIMSEHALQERYGVSRGTVRRALAQLVQEGLLVQRKGKGTFVTR | -1.65 |
| HMSQLVTGVLRNLNDISEKIAAGKAVPEMLGRLENMQQMIANLKGNEGLIKSISILTRSAQDALR | 0.00825 |

| Sequence | soluble fraction (log2) |
| --- | --- |
| HMSQPLYWQIRRMVIDHDDANDVLQNTFIKAWSNIGSFRGDAKFSTWLYKIAVNESITFINKKKVQN | -0.469 |
| HMSQPYFELAAADMEALRNALSTIREIESVVLSGKIFHVEVREDLDPGTMNKLAFERGITLTHLVKKKN | -0.0763 |
| HMSQRINLNSASIEDMQSLDISNEKIDSIIDYRNRYGNIHNIYELLKIPGITIGDIHSIRNAVTVEIPH | -0.112 |
| HMSQSLSGWAAKDLEVKSGADASYRTVGRLPKGSKVSGKIINGYLHIEFDGSMRYVPVSGISKTE | -0.134 |
| HMSQSYHLADRGQSLGTLDYQAVLVGLATGRLSPDTLSWQEGEAGWVALRQRPEFASGVSAVASL | 0.0116 |
| HMSRAHTELEEKLLTMLEENDMTLPMRVISNIASRIEGIIIPEEKILEVLKKSYDRYREHQMD | 0.0257 |
| HMSRARSRQTSMLEAVAGLGPARRRALLKQFGGLQGVLRAGIEDLSRAPGIGPALAQAIFEHLHPGA | -0.466 |
| HMSREQARRFYFDTWAKHRASQPLTDLEKIALTVMLLHPEYHSLLDKPDHYVDKDYSPEAGQTNPFLHM | -1.2 |
| HMSRIDRKGLTSQIVNHLSKNPGKNFTLKQFFRNLKLNTHPLKMLAVDVLNKLLDTNFITRNEDGEFFLKA | 0.337 |
| HMSRLMIVTPDGRIMDDVPEFGEVRTTTDVNGRVLVLDRNNVVIGFEMTPREYRREFGRNPF | -0.643 |
| HMSRQAPIGHRIRGRRKDIGMTQNALAKAAGISPSYLNLIEHNRRSIGGGLLMRIAAILDIHPHTL | -2.23 |
| HMSRTLLVYVTGAVRQPGVYELPEGSRFFDAVKAAGDVLPYAVMEDINMAEPLSDGMKIHIPLDPEQ | -0.125 |
| HMSRVFSPSELEIRHAQDVFQALEEAKRQGKGAVSLNGKMIDAPIVARAKLVLEAAAAIYGED | -0.362 |
| HMSRVHHGFNISIARNRKGLKQAALADMLGISQQRLSQLENQRVVKDEILEKVSEATGVSVEDLKTIE | -0.253 |
| HMSRVSVDGEEVNFEGEIPDDPSRIYELLMGALSEQSRVVVKFFVDGKDALLDEGFPSRYQMIEAESV | -0.285 |
| HMSRYAFEGNVVRLNQKDFDSWKALFTNIDLVSELTRLDIEFTHDKPKNWFSTASAKLNYQNKNAY | -2.27 |
| HMSRYLLPYAFARTQQVLLEEKSGELTLWMHSGSNLGGISEVTRKYAVQHVTHEPMDALLNRISSAYAN | -3.41 |
| HMSSAVKRALAELPENWRMIVYYRVVEGLSYAEIAKVLDIPDGSVMSGLHRGKKMLRGLLLEYAQQEGYD | -1.72 |
| HMSSDDEAFKRELVGLIPHLRAFARTLTGDPTAADDLAQDAMMKAWDARASYQMGTNMKAWTFMILRNQFY | -2.22 |
| HMSSDKVWSFEASGKQLQASYVAFENETVYLRASEDGSLLQFPLTDFGMKDQLVVLELYELSAKINRSN | -0.49 |
| HMSSDLSNVVKIIDTLKHKKGALLPILHQIQREIGYIPLKTIDTIAKKLQQTPAEIHGVISFYHQFRTS | 0.0942 |
| HMSSEASALRGWLQTSQYQGSVTLFANALNVPLKTVEDWVYGRSKPSLQHWSQLYEATGLPEYQQ | -0.18 |
| HMSSFRDISGTVYVKASAANLRSEPNTSSLIVDTLYYGASLQRISTNDIWTKVKTGNGQIGFMDNSLFQT | -2.23 |
| HMSSGSLLTEREIEILAEMAKGLTNKAIGEKLFISVATVKTHILNIYRKLEVSSRVTAVNKAKQMRL | -1.93 |
| HMSSGTAYATDAVNVRSGPGTSYTVLGYLSRGEKVTITGTVSNGWTQIQLPGNRLGYVSSAYLSASYPS | -0.259 |
